Measurements taken from the RNAGym collection of RNA variant scans (doi:10.1021/acssynbio.7b00057).

B1: Pistol ribozyme (parent)
chain: GGGUCGUUGUUCCAUAAUCGCGUGGAUAUGGCACGCAAGUUUCUACCGGGCACCGUAAAUGUCCGACUGGAGCCGUUCGGGCGGCUAUAAACAGACCUCAGGCCCGAAGCGUGGCGGCACCUGCCGCCGGUGGUAAAAAAGAUCGGAAGAGCACACGUCU

Variants of: B1
Assay: aptazyme ON/OFF ratio, guanine; higher = stronger switching; co-transcriptional cleavage with and without guanine

| Variant | aptazyme ON/OFF ratio |
| --- | --- |
| GGGUCGCCGAGUCAUAAUCGCGUGGAUAUGGCACGCAAGUUUCUACCGGGCACCGUAAAUGUCCGACUGGAGCCGUUCGGGCGGCUAUAAACAGACCUCAGGCCCGAAGCGUGGCGGCACCUGCCGCCGGUGGUAAAAAAGAUCGGAAGAGCACACGUCU [U7C U8C U10A U11G C12U] | 1.25 |
| GGGUCGCCGAGGCAUAAUCGCGUGGAUAUGGCACGCAAGUUUCUACCGGGCACCGUAAAUGUCCGACUGGAGCCGUUCGGGCGGCUAUAAACAGACCUCAGGCCCGAAGCGUGGCGGCACCUGCCGCCGGUGGUAAAAAAGAUCGGAAGAGCACACGUCU [U7C U8C U10A U11G C12G] | 1.41 |
| GGGUCGCCGAGACAUAAUCGCGUGGAUAUGGCACGCAAGUUUCUACCGGGCACCGUAAAUGUCCGACUGGAGCCGUUCGGGCGGCUAUAAACAGACCUCAGGCCCGAAGCGUGGCGGCACCUGCCGCCGGUGGUAAAAAAGAUCGGAAGAGCACACGUCU [U7C U8C U10A U11G C12A] | 1.13 |
| GGGUCGCCGCUAAAUAAUCGCGUGGAUAUGGCACGCAAGUUUCUACCGGGCACCGUAAAUGUCCGACUGGAGCCGUUCGGGCGGCUAUAAACAGACCUCAGGCCCGAAGCGUGGCGGCACCUGCCGCCGGUGGUAAAAAAGAUCGGAAGAGCACACGUCU [U7C U8C U10C C12A C13A] | 1.6 |
| GGGUCGCCGCUAGAUAAUCGCGUGGAUAUGGCACGCAAGUUUCUACCGGGCACCGUAAAUGUCCGACUGGAGCCGUUCGGGCGGCUAUAAACAGACCUCAGGCCCGAAGCGUGGCGGCACCUGCCGCCGGUGGUAAAAAAGAUCGGAAGAGCACACGUCU [U7C U8C U10C C12A C13G] | 1.14 |
| GGGUCGCCGCUAUAUAAUCGCGUGGAUAUGGCACGCAAGUUUCUACCGGGCACCGUAAAUGUCCGACUGGAGCCGUUCGGGCGGCUAUAAACAGACCUCAGGCCCGAAGCGUGGCGGCACCUGCCGCCGGUGGUAAAAAAGAUCGGAAGAGCACACGUCU [U7C U8C U10C C12A C13U] | 1.35 |
| GGGUCGCCGAGUUAUAAUCGCGUGGAUAUGGCACGCAAGUUUCUACCGGGCACCGUAAAUGUCCGACUGGAGCCGUUCGGGCGGCUAUAAACAGACCUCAGGCCCGAAGCGUGGCGGCACCUGCCGCCGGUGGUAAAAAAGAUCGGAAGAGCACACGUCU [U7C U8C U10A U11G C12U C13U] | 1.15 |
| GGGUCGCCGAGUGAUAAUCGCGUGGAUAUGGCACGCAAGUUUCUACCGGGCACCGUAAAUGUCCGACUGGAGCCGUUCGGGCGGCUAUAAACAGACCUCAGGCCCGAAGCGUGGCGGCACCUGCCGCCGGUGGUAAAAAAGAUCGGAAGAGCACACGUCU [U7C U8C U10A U11G C12U C13G] | 1.15 |
| GGGUCGCCGAGUAAUAAUCGCGUGGAUAUGGCACGCAAGUUUCUACCGGGCACCGUAAAUGUCCGACUGGAGCCGUUCGGGCGGCUAUAAACAGACCUCAGGCCCGAAGCGUGGCGGCACCUGCCGCCGGUGGUAAAAAAGAUCGGAAGAGCACACGUCU [U7C U8C U10A U11G C12U C13A] | 1.11 |
| GGGUCGCCGCUUGAUAAUCGCGUGGAUAUGGCACGCAAGUUUCUACCGGGCACCGUAAAUGUCCGACUGGAGCCGUUCGGGCGGCUAUAAACAGACCUCAGGCCCGAAGCGUGGCGGCACCUGCCGCCGGUGGUAAAAAAGAUCGGAAGAGCACACGUCU [U7C U8C U10C C12U C13G] | 1.34 |
| GGGUCGCCGCUUUAUAAUCGCGUGGAUAUGGCACGCAAGUUUCUACCGGGCACCGUAAAUGUCCGACUGGAGCCGUUCGGGCGGCUAUAAACAGACCUCAGGCCCGAAGCGUGGCGGCACCUGCCGCCGGUGGUAAAAAAGAUCGGAAGAGCACACGUCU [U7C U8C U10C C12U C13U] | 1.45 |
| GGGUCGCCGCUUAAUAAUCGCGUGGAUAUGGCACGCAAGUUUCUACCGGGCACCGUAAAUGUCCGACUGGAGCCGUUCGGGCGGCUAUAAACAGACCUCAGGCCCGAAGCGUGGCGGCACCUGCCGCCGGUGGUAAAAAAGAUCGGAAGAGCACACGUCU [U7C U8C U10C C12U C13A] | 1.35 |
| GGGUCGCCGAGCAAUAAUCGCGUGGAUAUGGCACGCAAGUUUCUACCGGGCACCGUAAAUGUCCGACUGGAGCCGUUCGGGCGGCUAUAAACAGACCUCAGGCCCGAAGCGUGGCGGCACCUGCCGCCGGUGGUAAAAAAGAUCGGAAGAGCACACGUCU [U7C U8C U10A U11G C13A] | 1.25 |
| GGGUCGCCGAGCUAUAAUCGCGUGGAUAUGGCACGCAAGUUUCUACCGGGCACCGUAAAUGUCCGACUGGAGCCGUUCGGGCGGCUAUAAACAGACCUCAGGCCCGAAGCGUGGCGGCACCUGCCGCCGGUGGUAAAAAAGAUCGGAAGAGCACACGUCU [U7C U8C U10A U11G C13U] | 1.18 |
| GGGUCGCCGAGCGAUAAUCGCGUGGAUAUGGCACGCAAGUUUCUACCGGGCACCGUAAAUGUCCGACUGGAGCCGUUCGGGCGGCUAUAAACAGACCUCAGGCCCGAAGCGUGGCGGCACCUGCCGCCGGUGGUAAAAAAGAUCGGAAGAGCACACGUCU [U7C U8C U10A U11G C13G] | 1.18 |
| GGGUCGCCGCUGAAUAAUCGCGUGGAUAUGGCACGCAAGUUUCUACCGGGCACCGUAAAUGUCCGACUGGAGCCGUUCGGGCGGCUAUAAACAGACCUCAGGCCCGAAGCGUGGCGGCACCUGCCGCCGGUGGUAAAAAAGAUCGGAAGAGCACACGUCU [U7C U8C U10C C12G C13A] | 1.24 |
| GGGUCGCCGCUGGAUAAUCGCGUGGAUAUGGCACGCAAGUUUCUACCGGGCACCGUAAAUGUCCGACUGGAGCCGUUCGGGCGGCUAUAAACAGACCUCAGGCCCGAAGCGUGGCGGCACCUGCCGCCGGUGGUAAAAAAGAUCGGAAGAGCACACGUCU [U7C U8C U10C C12G C13G] | 1.18 |
| GGGUCGCCGCUGUAUAAUCGCGUGGAUAUGGCACGCAAGUUUCUACCGGGCACCGUAAAUGUCCGACUGGAGCCGUUCGGGCGGCUAUAAACAGACCUCAGGCCCGAAGCGUGGCGGCACCUGCCGCCGGUGGUAAAAAAGAUCGGAAGAGCACACGUCU [U7C U8C U10C C12G C13U] | 1.2 |
